Kd, IC50 and EC50 data for 1 molecule are collected here from US20260250363A1.

Common to all, as to settings: remark: other sources report otherwise
Experiment [1] deals with T1, SARS-CoV-2 AY.1 Spike Protein (R&D, Cat. #10922-CV) (SARS-CoV-2), P0DTC2. Briefly: BLI (ForteBio), mAb on AHC sensor, spike in solution.
Experiment [2] addresses T2, SARS-CoV-2 Spike Protein, wild type (R&D, Cat. #10549-CV) (SARS-CoV-2), P0DTC2. Described as above.
Experiment [3] has as its target T3, SARS-CoV-2 C.37 Spike His Protein (R&D, Cat. #10887-CV) (SARS-CoV-2), P0DTC2. The experiment is described as above.
Experiment [4] addresses T1, SARS-CoV-2 AY.1 Spike Protein (R&D, …). Briefly: competition ELISA: blocks biotin-ACE2 binding to coated spike. For orientation: ELISA stands for enzyme-linked immunosorbent assay.
For experiment [5], the target named is T2, SARS-CoV-2 Spike Protein, wild type …. The experiment is described as above.
Experiment [6] has as its target T1, SARS-CoV-2 AY.1 Spike Protein (R&D, …). The description is as above. The source holds these as a separate data set.
Experiment [7] concerns the target T2, SARS-CoV-2 Spike Protein, wild type …. Described as above. The source holds these as a separate data set.
Experiment [8] addresses T3, SARS-CoV-2 C.37 Spike His Protein (R&D, …). The experiment is described as above.
Experiment [9] addresses T1, SARS-CoV-2 AY.1 Spike Protein (R&D, …). Briefly: direct ELISA on coated spike.
Experiment [10] deals with T2, SARS-CoV-2 Spike Protein, wild type …. The experiment can be described thus: direct ELISA on coated spike.
Experiment [11] addresses T3, SARS-CoV-2 C.37 Spike His Protein (R&D, …). Briefly: direct ELISA on coated spike.
For experiment [12] the target is unchanged. The experiment can be described thus: competition ELISA: blocks biotin-ACE2 binding to coated spike. This is another data set of the same source.

B1: Casirivimab (antibody)
chain 1: QVQLVESGGGLVKPGGSLRLSCAASGFTFSDYYMSWIRQAPGKGLEWVSYITYSGSTIYYADSVKGRFTISRDNAKSSLYLQMNSLRAEDTAVYYCARDRGTTMVPFDYWGQGTLVTVSS
chain 2: DIQMTQSPSSLSASVGDRVTITCQASQDITNYLNWYQQKPGKAPKLLIYAASNLETGVPSRFSGSGSGTDFTFTISGLQPEDIATYYCQQYDNLPLTFGGGTKVEIK
Regarding B1, the Kd (in general, the equilibrium constant for the complex coming apart) in experiment [1] is 1.08 nM; in experiment [2], 2.85 nM; in experiment [3] it was 0.511 nM. Further, the IC50 (as a rule, the point on the concentration scale where inhibition reaches its midpoint) in experiment [4] is 0.341 nM; in [5], 2.94 nM; in experiment [6], 0.646 nM; in [7] it was 3.73 nM; in experiment [8], 1.9 nM; in experiment [12], 1.39 nM. Moreover, the EC50 (in general, the concentration that produces a half-maximal response) is 0.041 nM in experiment [9], 0.0557 nM in [10] and 0.0507 nM in [11].
